In the supplement of paper PMC12667976:

B1: library; numbered along this chain (parent)
chain: MATDAALRRLLRLHRTEIAVAVDSAFPLLHALADHDVVPEDKFQETLHLKEKEGCPQAFHALLSWLLTQDSTAILDFWRVLFKDYNLERYGRLQPILDSFPKDVDLSQPRKGRKPPAVPKALVPPPRLPTKRKASEEARAAAPAALTPRGTASPGSQLKAKPPKKPESSAEQQRLPLGNGIQTMSASVQRAVAMSSGDVPGARGAVEGILIQQVFESGGSKKCIQVGGEFYTPSKFEDSGSGKNKARSSSGPKPLVRAKGAQGAAPGGGEARLGQQGSVPAPLALPSDPQLHQKNEDECAVCRDGGELICCDGCPRAFHLACLSPPLREIPSGTWRCSSCLQATVQEVQPRAEEPRPQEPPVETPLPPGLRSAGEEVRGPPGEPLAGMDTTLVYKHLPAPPSAAPLPGLDSSALHPLLCVGPEGQQNLAPGARCGVCGDGTDVLRCTHCAAAFHWRCHFPAGTSRPGTGLRCRSCSGDVTPAPVEGVLAPSPARLAPGPAKDDTASHEPALHRDDLESLLSEHTFDGILQWAIQSMARPAAPFPS

Variants of: B1
Assay: AIRE transcriptional activation functional score (insulin promoter-GFP; nonsense median 0, synonymous median 1) (normalised score); higher = higher AIRE activity (more reporter activation)
Details: with insulin promoter-GFP reporter in HEK293
Procedure, shortened: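 Functional scores come from comparing select with non-select enrichment of each variant and subtracting wild type. Codon-optimized AIRE NNN-codon libraries across three regions were integrated via Bxb1 recombinase into HEK293 landing-pad cells with an insulin core promoter-GFP reporter, and integrants sorted at day 7 were expanded 7 days before top 10% GFP and unselected populations were tile-sequenced. Variants needed 10 counts per million in non-select, and values were rescaled to nonsense median 0 and synonymous median 1 before averaging over biological replicates.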

AIRE transcriptional activation functional score, by site and new letter:
L529: A -0.089; C 0.595; D -0.829; E -0.369; F 0.323; G -0.203; H -0.499; I 1.17; M -0.503; N -0.625; P -0.359; Q -0.832; R 0.121; S -0.21; T 0.261; V 0.905; W 1.39; Y 0.598
Q530: A 0.824; C -0.0453; D 0.251; E 0.29; F -0.0468; H 1.21; I 0.183; K 0.392; L -0.018; M -0.198; N 1.52; P 0.385; R -0.0677; S 0.546; T 1.05; V -0.295; W -0.0706; Y 0.438
W531: A -0.104; C 0.138; D 0.357; E -0.39; F 0.12; G 0.0105; I 0.285; K 0.178; L 0.702; M 0.434; N -0.329; P -0.179; Q 0.225; R -0.126; S 0.218; V -0.0485
A532: C -0.268; D 0.194; F -0.19; G 0.0621; I 0.447; K -0.0221; L 1.01; N 0.0785; P 0.00951; Q 0.186; R 0.215; S 0.141; T 1.21; V 0.836; Y 0.432
I533: C 0.256; D 0.569; E -0.386; G 0.261; H 0.217; L 0.274; M 1.13; N -0.116; Q 0.144; R 0.266; S 0.404; T 0.516; V 0.411; W 0.193; Y 0.199
Q534: A 1.7; C 1.08; D -0.117; F 0.205; G 1.08; H 0.807; I -0.04; K 0.887; L 0.314; M 0.598; N 1.8; P 0.0913; R 0.171; S 0.372; T 1.76; V 0.135; Y 0.193
S535: A 1.1; C 0.706; F 0.394; G 1.74; H 0.704; I 0.212; K -0.212; L 0.146; M -0.462; N 0.164; P 0.472; Q -0.0138; R 0.12; T 0.745; V 0.00974; W 0.301; Y -1.02
M536: A 0.0376; C 1.08; D 0.726; E 0.588; F 1.95; G 0.186; H 1; I 1.19; K -0.0329; L 1.04; N 0.506; P 0.215; R -0.0464; S 0.272; T 1.15; V 0.514; W 0.508; Y -0.0719
A537: C 0.622; E 0.915; G 0.792; H 0.783; I 0.231; K 0.346; L 0.0269; M 0.458; P 0.545; Q 0.813; R -0.0391; S 1.1; T 1.41; V 0.891
R538: A 0.19; G 0.544; I 1.65; K 1.18; L 1.52; M 1.05; N -0.187; S 0.733; T 0.72; W 1.54
P539: A 0.371; C 0.233; D 0.00758; F 0.224; G 1.47; H 0.373; I 0.0871; K 0.00204; L -0.0017; M 0.297; N 0.745; Q 0.339; R 0.158; S 0.85; T 0.931; V 0.434; W 0.719; Y -0.367
A540: C 1.37; D 0.625; E 0.617; F 0.417; G 1; H 0.844; I 0.978; K 0.195; L 0.964; M 0.694; N 1.02; P 1.07; Q 0.739; R 0.119; S 0.988; T 0.867; V 1.11; W 0.41; Y 0.912
A541: C 1.43; D 0.469; E 0.858; F 0.75; G 0.847; H 0.976; I 1.3; K 0.252; L 0.957; M 0.557; N 0.974; P 0.791; Q 1.05; R 0.198; S 0.717; T 0.842; V 1.1; W 0.259; Y 0.977
P542: A 1.19; C 1.05; D 0.633; E 0.426; F 0.923; G 0.957; H 0.651; I 1.09; K 0.249; L 1.07; M 1.3; N -0.142; Q 0.942; R 0.209; S 1.07; T 0.963; V 1.16; W 0.476; Y 1.25
F543: A 0.367; C 0.138; D 0.845; E 0.561; G 0.595; I 0.17; L 0.729; M 0.745; N 0.535; P 1.13; Q 0.317; R 0.296; S 0.493; T 0.669; V 0.18; W 1.23; Y 0.833
P544: A 1.28; C 0.924; F 0.586; G 1.38; H 0.559; I 1.16; L 1.19; N -0.709; Q 0.746; R 0.52; S 0.867; T 0.985; V 0.842; Y 1.65
S545: A -0.21; C 1.3; F 1.04; P 0.59; T 0.998; Y 1.35
